Results as given in the supplement of paper PMC9876800.

Tested on: peptide library, one residue held at a place counted from the S/T acceptor
Test: relative phosphorylation of the sub-library (ratio to the mean residue at this position); higher = residue favoured
Details: human
Outline: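 Spots on streptavidin membranes were phosphorimaged and quantified by densitometry to measure phosphorylation of biotinylated degenerate peptide sub-libraries by purified recombinant kinases, human or orthologue constructs. The reactions ran in 384-well plates for 90 min under kinase-specific conditions, with peptides at 50 μM and 50 μM ATP spiked with γ-32P-ATP. Relative sub-library phosphorylation is the ratio to the mean residue at that position.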

Chain of ROCK1, construct: aa1-535 (Q13464 1-535, looked up): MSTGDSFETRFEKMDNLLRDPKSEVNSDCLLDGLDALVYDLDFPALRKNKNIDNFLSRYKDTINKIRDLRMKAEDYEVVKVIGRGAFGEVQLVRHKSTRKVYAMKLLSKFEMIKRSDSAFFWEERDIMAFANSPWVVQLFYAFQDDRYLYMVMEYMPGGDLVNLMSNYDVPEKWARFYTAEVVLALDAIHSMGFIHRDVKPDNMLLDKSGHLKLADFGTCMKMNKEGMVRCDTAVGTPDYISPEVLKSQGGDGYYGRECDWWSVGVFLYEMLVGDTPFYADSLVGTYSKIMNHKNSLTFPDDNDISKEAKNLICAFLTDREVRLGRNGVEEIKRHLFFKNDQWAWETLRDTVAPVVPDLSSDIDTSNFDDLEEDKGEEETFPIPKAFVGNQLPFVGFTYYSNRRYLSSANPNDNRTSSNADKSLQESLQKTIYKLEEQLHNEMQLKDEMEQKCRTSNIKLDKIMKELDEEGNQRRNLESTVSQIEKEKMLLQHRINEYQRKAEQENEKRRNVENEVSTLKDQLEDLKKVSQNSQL

ROCK1, construct: aa1-535 (from UniProt Q13464)
relative phosphorylation
Details | at +1 | at +2 | at +3 | at +4 | at -1 | at -2 | at -3 | at -4 | at -5
A fixed | 0.632 | 0.883 | 1.01 | 0.721 | 0.745 | 0.528 | 0.549 | 0.906 | 0.953
D fixed | 0.366 | 0.412 | 0.54 | 0.674 | 0.384 | 0.203 | 0.219 | 0.44 | 0.454
E fixed | 0.358 | 0.39 | 0.488 | 0.656 | 0.303 | 0.188 | 0.231 | 0.525 | 0.462
F fixed | 0.758 | 0.678 | 1.11 | 1.13 | 0.579 | 0.42 | 0.343 | 0.653 | 0.703
G fixed | 0.706 | 0.773 | 1.42 | 1.06 | 1.03 | 0.534 | 0.577 | 1.1 | 1.06
H fixed | 0.963 | 1.13 | 1.23 | 1.15 | 1.23 | 1.12 | 1.35 | 1.15 | 1.19
I fixed | 1.43 | 1.13 | 0.81 | 0.866 | 0.52 | 0.268 | 0.28 | 0.532 | 0.603
K fixed | 1.1 | 1.6 | 1.08 | 1.35 | 2.43 | 2.69 | 2.63 | 2.22 | 2.44
L fixed | 1.57 | 1.2 | 1.01 | 1.06 | 1.02 | 0.359 | 0.316 | 0.571 | 0.495
M fixed | 1.64 | 0.968 | 0.913 | 0.999 | 1.06 | 0.448 | 0.352 | 0.732 | 0.586
N fixed | 1.38 | 0.854 | 0.988 | 1.15 | 1.14 | 0.906 | 0.575 | 0.89 | 0.878
P fixed | 0.224 | 0.727 | 1.15 | 0.994 | 0.816 | 0.43 | 0.412 | 0.891 | 0.931
Q fixed | 1.33 | 0.866 | 0.897 | 1.12 | 1.11 | 0.842 | 0.703 | 0.88 | 0.83
R fixed | 2.22 | 2.27 | 1.34 | 1.37 | 2.27 | 6.35 | 7.13 | 3.19 | 3.2
V fixed | 0.969 | 1.26 | 0.818 | 0.709 | 0.648 | 0.317 | 0.293 | 0.657 | 0.672
W fixed | 0.704 | 0.808 | 1.16 | 1.07 | 0.673 | 0.774 | 0.562 | 0.885 | 0.759
Y fixed | 0.648 | 1.05 | 1.03 | 0.927 | 1.05 | 0.623 | 0.485 | 0.777 | 0.778
pThr fixed | 0.432 | 0.607 | 0.507 | 0.658 | 0.315 | 0.378 | 0.392 | 0.712 | 0.745
pTyr fixed | 0.477 | 0.576 | 0.731 | 0.674 | 0.525 | 0.329 | 0.407 | 0.625 | 0.817

DYRK2, construct: Full length (from UniProt Q92630)
relative phosphorylation
Details | at +1 | at +2 | at +3 | at +4 | at -1 | at -2 | at -3 | at -4 | at -5
A fixed | 0.832 | 1.06 | 0.927 | 0.956 | 1.27 | 2.04 | 0.9 | 0.971 | 1.08
D fixed | 0.164 | 1.08 | 0.82 | 1.14 | 0.655 | 0.308 | 0.592 | 0.84 | 0.894
E fixed | 0.214 | 0.977 | 0.792 | 0.8 | 0.788 | 0.307 | 0.529 | 0.922 | 0.857
F fixed | 0.209 | 0.977 | 0.929 | 1.23 | 0.7 | 0.518 | 0.457 | 0.843 | 1.03
G fixed | 0.62 | 0.756 | 1.59 | 1.17 | 1.17 | 0.984 | 1.78 | 1.05 | 1.16
H fixed | 0.227 | 0.923 | 0.915 | 0.967 | 0.948 | 0.562 | 0.796 | 0.894 | 1.14
I fixed | 0.368 | 1.26 | 0.8 | 0.996 | 0.702 | 0.897 | 0.571 | 0.843 | 0.833
K fixed | 0.357 | 0.502 | 0.548 | 0.832 | 1.12 | 0.495 | 0.756 | 0.859 | 0.859
L fixed | 0.307 | 1.45 | 1.1 | 0.987 | 0.823 | 0.98 | 0.635 | 0.861 | 0.878
M fixed | 0.314 | 1.48 | 1.05 | 1.22 | 1.16 | 0.915 | 0.608 | 0.969 | 0.843
N fixed | 0.304 | 1.08 | 0.838 | 0.928 | 0.877 | 0.781 | 0.691 | 0.771 | 0.846
P fixed | 9.47 | 0.703 | 2.79 | 1.16 | 1.68 | 2.97 | 0.988 | 1.26 | 0.99
Q fixed | 0.466 | 1.1 | 0.893 | 0.992 | 1.05 | 0.597 | 0.735 | 0.826 | 0.819
R fixed | 1.99 | 0.629 | 0.707 | 0.778 | 1.5 | 2.44 | 5.23 | 2.46 | 1.69
V fixed | 0.772 | 1.23 | 0.682 | 0.918 | 0.898 | 1.28 | 0.573 | 0.781 | 0.833
W fixed | 0.193 | 0.958 | 0.902 | 0.984 | 0.627 | 0.487 | 0.571 | 0.997 | 1.01
Y fixed | 0.195 | 0.829 | 0.72 | 0.932 | 1.04 | 0.444 | 0.588 | 0.853 | 1.24
pThr fixed | 0.399 | 1.77 | 0.745 | 1.28 | 0.415 | 0.56 | 0.647 | 1.03 | 1.03
pTyr fixed | 0.476 | 0.786 | 0.709 | 0.928 | 0.953 | 0.452 | 0.79 | 1.19 | 1.19

DYRK3, construct: Full length (from UniProt O43781)
relative phosphorylation
Details | at +1 | at +2 | at +3 | at +4 | at -1 | at -2 | at -3 | at -4 | at -5
A fixed | 0.74 | 0.843 | 0.891 | 0.767 | 1.14 | 1.24 | 0.635 | 0.856 | 0.845
D fixed | 0.16 | 0.894 | 0.621 | 0.723 | 0.447 | 0.181 | 0.404 | 0.698 | 0.663
E fixed | 0.175 | 0.758 | 0.613 | 0.713 | 0.554 | 0.207 | 0.368 | 0.747 | 0.656
F fixed | 0.266 | 1.19 | 1.12 | 1.31 | 0.777 | 0.378 | 0.422 | 0.876 | 1.07
G fixed | 0.732 | 0.679 | 1.47 | 1.07 | 1.13 | 0.719 | 1.59 | 1.01 | 0.936
H fixed | 0.3 | 1.2 | 1.27 | 1.16 | 0.991 | 0.556 | 0.621 | 0.945 | 1.12
I fixed | 0.513 | 1.33 | 0.817 | 0.973 | 0.709 | 0.643 | 0.418 | 0.905 | 1.05
K fixed | 0.494 | 0.7 | 0.727 | 0.926 | 1.42 | 0.746 | 0.92 | 1.1 | 1.11
L fixed | 0.329 | 1.41 | 1.23 | 0.916 | 0.882 | 0.651 | 0.444 | 0.887 | 0.892
M fixed | 0.337 | 1.41 | 1.21 | 1.35 | 1.22 | 0.67 | 0.467 | 0.903 | 0.84
N fixed | 0.289 | 0.883 | 0.777 | 0.919 | 0.783 | 0.555 | 0.473 | 0.71 | 0.809
P fixed | 8.02 | 0.703 | 1.93 | 0.889 | 1.27 | 1.93 | 0.514 | 0.886 | 0.898
Q fixed | 0.442 | 0.889 | 0.834 | 0.932 | 1 | 0.583 | 0.518 | 0.688 | 0.742
R fixed | 2.71 | 1.05 | 1.09 | 1.13 | 2.12 | 6.5 | 7.91 | 3.23 | 2.49
V fixed | 0.987 | 1.1 | 0.661 | 0.785 | 0.726 | 0.724 | 0.357 | 0.664 | 0.716
W fixed | 0.257 | 0.91 | 0.887 | 1.38 | 0.64 | 0.386 | 0.473 | 0.964 | 0.942
Y fixed | 0.242 | 1.04 | 0.858 | 1.06 | 1.18 | 0.336 | 0.473 | 0.928 | 1.21
pThr fixed | 0.328 | 1.44 | 0.549 | 0.977 | 0.353 | 0.349 | 0.492 | 0.812 | 0.954
pTyr fixed | 0.363 | 0.759 | 0.769 | 0.815 | 0.735 | 0.287 | 0.542 | 0.74 | 1.15
